{"source": "patent US20050014242", "key": {"[1]": {"tested_on": "CFEK2-prostasin-6×HIS (purified zymogen, not digested with EK)"}, "[2]": {"tested_on": "PFEK1-protease O-6×HIS (purified zymogen, not digested with EK)"}, "[3]": {"tested_on": "PFEK1-neuropsin-6×HIS (purified zymogen, not digested with EK)"}, "[4]": {"tested_on": "PFEK2-protease F-6×HIS (purified zymogen, not digested with EK)", "sequence (chain, as listed by the source)": "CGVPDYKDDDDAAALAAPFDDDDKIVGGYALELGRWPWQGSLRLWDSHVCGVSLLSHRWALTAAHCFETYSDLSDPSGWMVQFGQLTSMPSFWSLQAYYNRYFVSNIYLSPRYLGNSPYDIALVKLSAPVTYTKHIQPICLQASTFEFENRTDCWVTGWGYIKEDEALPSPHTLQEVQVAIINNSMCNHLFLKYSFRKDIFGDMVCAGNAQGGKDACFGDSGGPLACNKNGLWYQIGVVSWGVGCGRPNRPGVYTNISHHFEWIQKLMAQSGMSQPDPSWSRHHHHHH"}, "[5]": {"tested_on": "PFEK1-protease MH2-6×HIS (purified zymogen, not digested with EK)", "sequence (chain, as listed by the source)": "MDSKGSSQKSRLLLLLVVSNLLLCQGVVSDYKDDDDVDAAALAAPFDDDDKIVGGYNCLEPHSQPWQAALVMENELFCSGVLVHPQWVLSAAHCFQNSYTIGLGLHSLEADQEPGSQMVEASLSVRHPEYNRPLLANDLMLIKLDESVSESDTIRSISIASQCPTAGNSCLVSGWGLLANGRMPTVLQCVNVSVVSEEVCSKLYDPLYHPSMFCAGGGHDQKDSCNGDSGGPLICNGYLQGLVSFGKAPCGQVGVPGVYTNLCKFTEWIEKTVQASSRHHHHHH"}, "[6]": {"tested_on": "PFEK2-prostasin-6×HIS (purified zymogen, not digested with EK)"}}, "data": [{"substance": "enterokinase", "values": [{"measurement": "cleavage of the zymogen (SDS-PAGE and anti-FLAG Western blot)", "setting": "[1]", "result": "quantitative cleavage of the expressed and purified zymogen to generate the processed and activated protease"}, {"measurement": "cleavage of the zymogen (SDS-PAGE and anti-FLAG Western blot)", "setting": "[2]", "result": "quantitative cleavage of the expressed and purified zymogen to generate the processed and activated protease"}, {"measurement": "cleavage of the zymogen (SDS-PAGE and anti-FLAG Western blot)", "setting": "[3]", "result": "quantitative cleavage of the expressed and purified zymogen to generate the processed and activated protease"}, {"measurement": "cleavage of the zymogen (SDS-PAGE and anti-FLAG Western blot)", "setting": "[4]", "result": "quantitative cleavage of the expressed and purified zymogen to generate the processed and activated protease"}, {"measurement": "cleavage of the zymogen (SDS-PAGE and anti-FLAG Western blot)", "setting": "[5]", "result": "quantitative cleavage of the expressed and purified zymogen to generate the processed and activated protease"}, {"measurement": "cleavage of the zymogen (SDS-PAGE and anti-FLAG Western blot)", "setting": "[6]", "result": "quantitative cleavage of the expressed and purified zymogen to generate the processed and activated protease"}]}]}
